The target in the assay is FcεRIα subunit of the high-affinity IgE receptor (FcεRI) (human) (UniProt P12319). Description: cell-based or functional assay.
FcεRIα subunit of the high-affinity IgE receptor (FcεRI) (human), sequence (P12319 26-257 limits assumed, form in doubt): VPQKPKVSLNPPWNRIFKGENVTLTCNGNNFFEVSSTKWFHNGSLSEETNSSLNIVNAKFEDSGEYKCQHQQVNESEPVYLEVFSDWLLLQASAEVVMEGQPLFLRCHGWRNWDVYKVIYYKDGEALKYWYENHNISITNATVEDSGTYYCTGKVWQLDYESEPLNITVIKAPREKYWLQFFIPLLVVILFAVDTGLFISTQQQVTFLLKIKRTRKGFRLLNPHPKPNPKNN

The substance “anti-FcεRIα antibody, clone AER-37 (CRA1)” showed a positive population mean for CD63 of 52.7% and a positive population mean for CD107a of 71.2%.
